Data set [1] has as its system HeLa Kyoto. The data set can be described thus: thermal stability score vs G1/S (z-score of summed log2 fold changes over temperatures); higher = more thermally stable than in G1/S.
Data set [2] relates to HeLa Kyoto. Briefly: solubility in G1/S (NP-40 vs SDS abundance) (log2 ratio); higher = more soluble. The settings on record: cell cycle stage: G1/S.
Data set [3] deals with HeLa Kyoto. Briefly: solubility change mitosis vs G1/S (difference of NP-40 vs SDS log2 ratios) (log2 ratio difference); higher = more soluble in mitosis.
Setting [4] is: cell cycle stage: early G1 (4.5 h after nocodazole release).
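Wherever solubility change mitosis vs G1/S (difference of NP-40 vs SDS log2 ratios) is given: synchronized HeLa Kyoto cells (double thymidine block for G1/S, nocodazole release for mitosis), protein amounts in NP-40 versus SDS lysates quantified by mass spectrometry, three biological replicates.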
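Wherever solubility in G1/S (NP-40 vs SDS abundance) is given: HeLa Kyoto cells arrested at G1/S by double thymidine block, proteins quantified by TMT10plex mass spectrometry in mild NP-40 versus SDS extracts, three biological replicates.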
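Wherever thermal stability score vs G1/S (z-score of summed log2 fold changes over temperatures) is given: synchronized HeLa Kyoto cells, proteins quantified by TMT10plex mass spectrometry, three biological replicates, mitosis taken 0.5 h after nocodazole release, G1/S directly after double thymidine block.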

Regarding “MSQYTEKEPAAMDQESGKAVWPKPAGGYQTITGRRYGRRHAYVSFKPCMTRHERSLGRAGDDYEVLELDDVPKENSSGSSPLDQVDSSLPSEPIFEKSETEIPTCGSALNQTTESSQSFVAVHHSEEGRDTLGSSTNLHNHSEGEYIPGACSASSVQNGIALVHTDSYDPDGKHGEDNDHLQLSAEVVEGSRYQESLGNTVFELENREAEAYTGLSPPVPSFNCEVRDEFEELDSVPLVKSSAGDTEFVHQNSQEIQRSSQDEMVSTKQQNNTSQERQTEHSPEDAACGPGHICSEQNTNDREKNHGSSPEQVVRPKVRKLISSSQVDQETGFNRHEAKQRSVQRWREALEVEESGSDDLLIKCEEYDGEHDCMFLDPPYSRVITQRETENNQMTSESGATAGRQEVDNTFWNGCGDYYQLYDKDEDSSECSDGEWSASLPHRFSGTEKDQSSSDESWETLPGKDENEPELQSDSSGPEEENQELSLQEGEQTSLEEGEIPWLQYNEVNESSSDEGNEPANEFAQPAFMLDGNNNLEDDSSVSEDLDVDWSLFDGFADGLGVAEAISYVDPQFLTYMALEERLAQAMETALAHLESLAVDVEVANPPASKESIDGLPETLVLEDHTAIGQEQCCPICCSEYIKDDIATELPCHHFFHKPCVSIWLQKSGTCPVCRRHFPPAVIEASAAPSSEPDPDAPPSNDSIAEAP [PJA2]”, the results for the thermal stability score in data set [1] (setting [4]) and in data set [1] (cell cycle stage: mitosis) were -3.9 and -1.5, respectively. Further, the “solubility in G1/S (log2)” value in data set [2] is -0.111. In addition, in data set [3], the “solubility change mitosis (log2)” value came to 0.121.
In the case of “MSSEMLPAFIETSNVDKKQGINEDQEESQKPRLGEGCEPISKRQMKKLIKQKQWEEQRELRKQKRKEKRKRKKLERQCQMEPNSDGHDRKRVRRDVVHSTLRLIIDCSFDHLMVLKDIKKLHKQIQRCYAENRRALHPVQFYLTSHGGQLKKNMDENDKGWVNWKDIHIKPEHYSELIKKEDLIYLTSDSPNILKELDESKAYVIGGLVDHNHHKGLTYKQASDYGINHAQLPLGNFVKMNSRKVLAVNHVFEIILEYLETRDWQEAFFTILPQRKGAVPTDKACESASHDNQSVRMEEGGSDSDSSEEEYSRNELDSPHEEKQDKENHTESTVNSLPH [TRMT10A]”, the figures for the thermal stability score in data set [1] (setting [4]) and in data set [1] (cell cycle stage: mitosis) were 0.883 and 0.552, respectively. Moreover, the “solubility in G1/S (log2)” value in data set [2] was -0.0218. In addition, the “solubility change mitosis (log2)” value in data set [3] was -0.0488.
The corresponding values for “MSSKQEIMSDQRFRRVAKDPRFWEMPEKDRKVKIDKRFRAMFHDKKFKLNYAVDKRGRPISHSTTEDLKRFYDLSDSDSNLSGEDSKALSQKKIKKKKTQTKKEIDSKNLVEKKKETKKANHKGSENKTDLDNSIGIKKMKTSCKFKIDSNISPKKDSKEFTQKNKKEKKNIVQHTTDSSLEEKQRTLDSGTSEIVKSPRIECSKTRREMQSVVQLIMTRDSDGYENSTDGEMCDKDALEEDSESVSEIGSDEESENEITSVGRASGDDDGSEDDEEEDEDEEEDEDEDSEDDDKSDSGPDLARGKGNIETSSEDEDDTADLFPEESGFEHAWRELDKDAPRADEITRRLAVCNMDWDRLKAKDLLALFNSFKPKGGVIFSVKIYPSEFGKERMKEEQVQGPVELLSIPEDAPEKDWTSREKLRDYQFKRLKYYYAVVDCDSPETASKIYEDCDGLEFESSCSFIDLRFIPDDITFDDEPKDVASEVNLTAYKPKYFTSAAMGTSTVEITWDETDHERITMLNRKFKKEELLDMDFQAYLASSSEDEEEIEEELQGDDGVNVEEDGKTKKSQKDDEEQIAKYRQLLQVIQEKEKKGKENDMEMEIKWVPGLKESAEEMVKNKLEGKDKLTPWEQFLEKKKEKKRLKRKQKALAEEASEEELPSDVDLNDPYFAEEVKQIGINKKSVKSAKDGTSPEEEIEIERQKAEMALLMMDEDEDSKKHFNYNKIVEHQNLSKKKKKQLMKKKELIEDDFEVNVNDARFQAMYTSHLFNLDPSDPNFKKTKAMEKILEEKARQRERKEQELTQAIKKKESEIEKESQRKSIDPALSMLIKSIKTKTEQFQARKKQKVK [ESF1]” are 2.5, 5.59, -1.21 and 0.656.
The corresponding values for “MSTEGGGRRCQAQVSRRISFSASHRLYSKFLSDEENLKLFGKCNNPNGHGHNYKVVVTVHGEIDPATGMVMNLADLKKYMEEAIMQPLDHKNLDMDVPYFADVVSTTENVAVYIWDNLQKVLPVGVLYKVKVYETDNNIVVYKGE [PTS]” are -0.38, -1.87, 0.154 and -0.182.
The like results for “MTKLAQWLWGLAILGSTWVALTTGALGLELPLSCQEVLWPLPAYLLVSAGCYALGTVGYRVATFHDCEDAARELQSQIQEARADLARRGLRF [DPM3]” were, in that order, -3.28, -4.14, -0.196 and -0.214.
On to “MTNPWEEKVCKMAQTSLLQGKQFYCREWVFHKLQHCLQEKSNCCNSAVNAPSLVMNSGNNASGVSGKGAAWGVLLVGGPGSGKTALCTELLWPSSPASLQRGLHRQALAFHFCKAQDSDTLCVGGFIRGLVAQICRSGLLQGYEDKLRDPAVQSLLQPGECERNPAEAFKRCVLLPLLGMKPPQQSLYLLVDSVDEGCNITEGEQTSTSLSGTVAALLAGHHEFFPPWLLLLCSARKQSKAVTKMFTGFRKISLDDLRKAYIVKDVQQYILHRLDQEEALRQHLTKETAEMLNQLHIKSSGCFLYLERVLDGVVENFIMLREIRDIPGTLNGLYLWLCQRLFVRKQFAKVQPILNVILAACRPLTITELYHAVWTKNMSLTLEDFQRKLDILSKLLVDGLGNTKILFHYSFAEWLLDVKHCTQKYLCNAAEGHRMLAMSYTCQAKNLTPLEAQEFALHLINSNLQLETAELALWMIWNGTPVRDSLSTLIPKEQEVLQLLVKAGAHVNSEDDRTSCIVRQALEREDSIRTLLDNGASVNQCDSNGRTLLANAAYSGSLDVVNLLVSRGADLEIEDAHGHTPLTLAARQGHTKVVNCLIGCGANINHTDQDGWTALRSAAWGGHTEVVSALLYAGVKVDCADADSRTALRAAAWGGHEDIVLNLLQHGAEVNKADNEGRTALIAAAYMGHREIVEHLLDHGAEVNHEDVDGRTALSVAALCVPASKGHASVVSLLIDRGAEVDHCDKDGMTPLLVAAYEGHVDVVDLLLEGGADVDHTDNNGRTPLLAAASMGHASVVNTLLFWGAAVDSIDSEGRTVLSIASAQGNVEVVRTLLDRGLDENHRDDAGWTPLHMAAFEGHRLICEALIEQGARTNEIDNDGRIPFILASQEGHYDCVQILLENKSNIDQRGYDGRNALRVAALEGHRDIVELLFSHGADVNCKDADGRPTLYILALENQLTMAEYFLENGANVEASDAEGRTALHVSCWQGHMEMVQVLIAYHADVNAADNEKRSALQSAAWQGHVKVVQLLIEHGAVVDHTCNQGATALCIAAQEGHIDVVQVLLEHGADPNHADQFGRTAMRVAAKNGHSQIIKLLEKYGASSLNGCSPSPVHTMEQKPLQSLSSKVQSLTIKSNSSGSTGGGDMQPSLRGLPNGPTHAFSSPSESPDSTVDRQKSSLSNNSLKSSKNSSLRTTSSTATAQTVPIDSFHNLSFTEQIQQHSLPRSRSRQSIVSPSSTTQSLGQSHNSPSSEFEWSQVKPSLKSTKASKGGKSENSAKSGSAGKKAKQSNSSQPKVLEYEMTQFDRRGPIAKSGTAAPPKQMPAESQCKIMIPSAQQEIGRSQQQFLIHQQSGEQKKRNGIMTNPNYHLQSNQVFLGRVSVPRTMQDRGHQEVLEGYPSSETELSLKQALKLQIEGSDPSFNYKKETPL [ANKRD50]”, for which the values for the thermal stability score in data set [1] (setting [4]) and in data set [1] (cell cycle stage: mitosis) were -0.667 and -0.543, respectively. Also, in data set [2], the “solubility in G1/S (log2)” value is 0.02. Also, in data set [3], the “solubility change mitosis (log2)” value is -0.256.

The values are drawn from the supplement of paper PMC5998384.
